Laboratory results taken from patent US20250382363A1 (NUMAB THERAPEUTICS, published 2025).
Positions count from the first letter of the chain named. Numbers in names are those of the source.

B1: PRO2991 (scFv 54-21-H03-sc01_(T101A)) (scFv)
scFv: DIQMTQSPSSLSASVGDRVTITCQASESIYSSLAWYQQKPGKAPKLLIYLASTLASGVPSRFSGSGSGTDFTLTISSLQPEDFATYYCQSTDYTTSTHRNSFGTGTKVTVLGGGGGSGGGGSGGGGSGGGGSEVQLVESGGGLVQPGGSLRLSCAASGFSFSTTYYMCWVRQAPGKGLEWIGCTNTASSVRTYYATWAKGRFTISRDNSKNTVYLQMNSLRAEDAAVYYCARDMGFADYALNLWGQGTLVTVSS
notes: PRO1922 variant; VH substitution, AHo numbering; also called PRO1922 T101A
B2: PRO3322 (scFv 54-21-H03-sc01_(L12R, T101R, L144A, T146Q)) (scFv)
scFv: B1 scFv with L143R, A225R, L249A, T251Q
notes: PRO1922 variant; VH substitutions, AHo numbering; also called PRO1922 L12R-T101R-L144A-T146Q
B3: PRO3318 (scFv 54-21-H03-sc01_(L12A, T101R, L144A, T146Q)) (scFv)
scFv: B1 scFv with L143A, A225R, L249A, T251Q
notes: PRO1922 variant; VH substitutions, AHo numbering; also called PRO1922 L12A-T101R-L144A-T146Q
B4: PRO3323 (scFv 54-21-H03-sc01_(L12A, T101Q, L144A, T146Q)) (scFv)
scFv: B1 scFv with L143A, A225Q, L249A, T251Q
notes: PRO1922 variant; VH substitutions, AHo numbering; also called PRO1922 L12A-T101Q-L144A-T146Q
B5: PRO3347 (scFv 54-21-H03-sc01_(T101S, T146S)) (scFv)
scFv: B1 scFv with A225S, T251S
notes: PRO1922 variant; VH substitutions, AHo numbering; also called PRO1922 T101S-T146S
B6: PRO3349 (scFv 54-21-H03-sc01_(T101R, T146E)) (scFv)
scFv: B1 scFv with A225R, T251E
notes: PRO1922 variant; VH substitutions, AHo numbering; also called PRO1922 T101R-T146E
B7: PRO3329 (scFv 54-21-H03-sc01_(T101Q)) (scFv)
scFv: B1 scFv with A225Q
notes: PRO1922 variant; VH substitution, AHo numbering; also called PRO1922 T101Q
B8: PRO3320 (scFv 54-21-H03-sc01_(L12A, T101S, L144K, T146Q)) (scFv)
scFv: B1 scFv with L143A, A225S, L249K, T251Q
notes: PRO1922 variant; VH substitutions, AHo numbering; also called PRO1922 L12A-T101S-L144K-T146Q
B9: PRO2992 (scFv 54-21-H03-sc01_(T146A)) (scFv)
scFv: B1 scFv with A225T, T251A
notes: PRO1922 variant; VH substitution, AHo numbering; also called PRO1922 T146A
B10: PRO2994 (scFv 54-21-H03-sc01_(P48A)) (scFv)
scFv: B1 scFv with P174A, A225T
notes: PRO1922 variant; VH substitution, AHo numbering; also called PRO1922 P48A
B11: PRO3344 (scFv 54-21-H03-sc01_(T101K, T146Q)) (scFv)
scFv: B1 scFv with A225K, T251Q
notes: PRO1922 variant; VH substitutions, AHo numbering; also called PRO1922 T101K-T146Q
B12: PRO3346 (scFv 54-21-H03-sc01_(T101S T146K)) (scFv)
scFv: B1 scFv with A225S, T251K
notes: PRO1922 variant; VH substitutions, AHo numbering; also called PRO1922 T101S-T146K
B13: PRO3325 (scFv 54-21-H03-sc01_(T101S, T146R)) (scFv)
scFv: B1 scFv with A225S, T251R
notes: PRO1922 variant; VH substitutions, AHo numbering; also called PRO1922 T101S-T146R
B14: PRO3321 (scFv 54-21-H03-sc01_(L12R, T101S, L144A, T146Q)) (scFv)
scFv: B1 scFv with L143R, A225S, L249A, T251Q
notes: PRO1922 variant; VH substitutions, AHo numbering; also called PRO1922 L12R-T101S-L144A-T146Q
B15: PRO3348 (scFv 54-21-H03-sc01_(T101K, T146D)) (scFv)
scFv: B1 scFv with A225K, T251D
notes: PRO1922 variant; VH substitutions, AHo numbering; also called PRO1922 T101K-T146D
B16: PRO2993 (scFv 54-21-H03-sc01_(P15A)) (scFv)
scFv: B1 scFv with P146A, A225T
notes: PRO1922 variant; VH substitution, AHo numbering; also called PRO1922 P15A
B17: PRO3326 (scFv 54-21-H03-sc01_(T101Q, T146Q)) (scFv)
scFv: B1 scFv with A225Q, T251Q
notes: PRO1922 variant; VH substitutions, AHo numbering; also called PRO1922 T101Q-T146Q
B18: PRO3345 (scFv 54-21-H03-sc01_(T101N, T146Q)) (scFv)
scFv: B1 scFv with A225N, T251Q
notes: PRO1922 variant; VH substitutions, AHo numbering; also called PRO1922 T101N-T146Q
B19: PRO3319 (scFv 54-21-H03-sc01_(L12A, T101S, L144A, T146R)) (scFv)
scFv: B1 scFv with L143A, A225S, L249A, T251R
notes: PRO1922 variant; VH substitutions, AHo numbering; also called PRO1922 L12A-T101S-L144A-T146R
B20: PRO3324 (scFv 54-21-H03-sc01_(T101R, T146Q)) (scFv)
scFv: B1 scFv with A225R, T251Q
notes: PRO1922 variant; VH substitutions, AHo numbering; also called PRO1922 T101R-T146Q

target: pre-existing anti-drug antibodies (ADA) present in human sera; assay: pre-existing ADA ELISA, scFv coated, human sera unspiked vs spiked

Row | Mean No of serum samples >30% inhibition (30% CCP) with SCP (serum samples) | No of serum samples >30% inhibition (30% CCP) without SCP (serum samples) | Binder
1 | 0 | 0 | B1
2 | 0 | 0 | B2
3 | 0 | 0 | B3
4 | 0 | 0 | B4
5 | 3 | 3 | B5
6 | 0 | 0 | B6
7 | 1 | 2 | B7
8 | 0 | 0 | B8
9 | 3 | 4 | B9
10 | 2 | 6 | B10
11 | 0 | 0 | B11
12 | 0 | 0 | B12
13 | 1 | 4 | B13
14 | 0 | 0 | B14
15 | 0 | 0 | B15
16 | 2 | 3 | B16
17 | 0 | 0 | B17
18 | 0 | 0 | B18
19 | 0 | 0 | B19
20 | 1 | 2 | B20

target: T1, human a-Mesothelin (Acro Biosystems; MSN_H5223) (human, UniProt Q13421 296-580, limits assumed); assay: SPR, mesothelin immobilised, scFv analyte, 1:1 fit
T1 construct: Bought protein immobilised on the SPR chip; Printed as 'a-Mesothelin' but used as the antigen for the anti-MSLN scFvs; also called Human MSLN; MSLN
T1 sequence (Q13421 other isoform, or with tags, fused parts or gaps limits assumed): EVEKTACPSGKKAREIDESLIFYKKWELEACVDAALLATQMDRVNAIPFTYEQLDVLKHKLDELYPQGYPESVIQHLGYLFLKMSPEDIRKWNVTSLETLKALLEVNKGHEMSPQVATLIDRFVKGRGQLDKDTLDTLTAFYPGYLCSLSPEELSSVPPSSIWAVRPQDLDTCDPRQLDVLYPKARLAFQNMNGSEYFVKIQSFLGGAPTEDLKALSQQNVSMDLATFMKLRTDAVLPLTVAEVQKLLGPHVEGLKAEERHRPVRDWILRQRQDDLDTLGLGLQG
Experimental: The mutation variants were then injected at concentrations of 10 nM, 2 nM and 0.4 nM over the ligand-immobilized and reference spots. The wild type variants were used as a control, while an empty spot was used as reference.
After each cycle with analyte, the surface was regenerated with a 3M MgCl₂ solution, thereby allowing the next analyte cycle to have only free ligand available. Binding affinity KD was globally calculated by the Bruker SPR software based on the binding association (kₒₙ) and dissociation (Koff) rate, by fitting a 1:1 Langmuir model to the curves obtained by the cycles with the three different concentrations of the analyte.

Row | Kd [nM] | n-fold to wt [fold] | Binder
21 | 2.9 | 1.6 | B1
22 | 2.1 | 1.2 | B2
23 | 2.3 | 1.3 | B3
24 | 1.7 | 0.9 | B4
25 | 1.7 | 0.9 | B5
26 | 1.9 | 1.1 | B6
27 | 1.6 | 0.9 | B7
28 | 1.6 | 0.9 | B8
29 | 1.7 | 0.9 | B9
30 | 1.5 | 0.8 | B10
31 | 1.6 | 0.9 | B11
32 | 1.5 | 0.8 | B12
33 | 1.8 | 1 | B13
34 | 1.7 | 0.9 | B14
35 | 2.5 | 1.4 | B15
36 | 0.82 | 0.5 | B16
37 | 1.8 | 1 | B17
38 | 1.5 | 0.8 | B18
39 | 2.5 | 1.4 | B19
40 | 1.9 | 1.1 | B20
